The values that follow come from patent publication US11325966.

Holding throughout (assay): cell-based or functional assay
The target of assay [1] is BG505 (T332N) N339A (HIV-1).
For assay [2], the target named is HIV-1 Env of pseudovirus ZM135M.PE10a (HIV-1).
Another assay addresses JR-CSF N362A (HIV-1) (UniProt P20871).
The target of assay [3] is HIV-1 envelope (Env) of pseudovirus 191955_A11 (HIV-1).
Assay [4] deals with HIV-1 envelope (Env) of pseudovirus 6041.v3.c23 (HIV-1).
The target of assay [5] is HIV-1 envelope (Env) of pseudovirus 7030102001E5 (Rev-) (HIV-1).
Assay [6] addresses HIV-1 envelope (Env) of pseudovirus 89-F1_2_25 (HIV-1).
The target in assay [7] is HIV-1 envelope (Env) of pseudovirus A07412M1.vrc12 (HIV-1).
Assay [8] deals with HIV-1 envelope (Env) of pseudovirus AC10.0.29 (HIV-1).
The target in assay [9] is HIV-1 envelope (Env) of pseudovirus BJOX009000.02.4 (HIV-1).
For assay [10], the target named is HIV-1 envelope (Env) of pseudovirus BJOX010000.06.2 (HIV-1).
The target in assay [11] is HIV-1 envelope (Env) of pseudovirus C3347.c11 (HIV-1).
Assay [12] has as its target HIV-1 envelope (Env) of pseudovirus CAAN5342.A2 (HIV-1).
Assay [13] deals with HIV-1 envelope (Env) of pseudovirus HIV-0013095-2.11 (HIV-1).
Assay [14] addresses HIV-1 envelope (Env) of pseudovirus Q23.17 (HIV-1).
Assay [15] deals with HIV-1 envelope (Env) of pseudovirus SC422661.8 (HIV-1).
Assay [16] addresses HIV-1 envelope (Env) of pseudovirus TRO.11 (HIV-1).
In assay [17] the target is HIV-1 envelope (Env) of pseudovirus X1254_c3 (HIV-1).
Assay [18] deals with HIV-1 envelope (Env) of pseudovirus YU2_N280Y (HIV-1) (UniProt P35961).
Assay [19] has as its target HIV-1 envelope (Env) of pseudovirus YU2_WT (HIV-1) (UniProt P35961).
Assay [20] concerns the target HIV-1 Env of pseudovirus BG505/T332N (HIV-1).
For assay [21], the target named is HIV-1 Env of pseudovirus C3347.H1 (HIV-1).
The target of assay [22] is HIV-1 Env of pseudovirus 191084 B7-19 (HIV-1).
In assay [23] the target is HIV-1 Env of pseudovirus 3016.v5.c45 (HIV-1).
Assay [24] concerns the target HIV-1 Env of pseudovirus 620345.c01 (HIV-1).
In assay [25] the target is HIV-1 Env of pseudovirus 7030102001E5(Rev-) (HIV-1).
For assay [26], the target named is HIV-1 Env of pseudovirus 89-F1_2_25 (HIV-1).
Assay [27] has as its target HIV-1 Env of pseudovirus CAP210.2.00.E8 (HIV-1).
The target in assay [28] is HIV-1 Env of pseudovirus CAP45.2.00.G3 (HIV-1).
Assay [29] deals with HIV-1 Env of pseudovirus CNE19 (HIV-1).
For assay [30], the target named is HIV-1 Env of pseudovirus CNE5 (HIV-1).
For assay [31], the target named is HIV-1 Env of pseudovirus CNE52 (HIV-1).
Assay [32] concerns the target HIV-1 Env of pseudovirus HIV-0013095-2.11 (HIV-1).
For assay [33], the target named is HIV-1 Env of pseudovirus Q842.d12 (HIV-1).
Assay [34] deals with HIV-1 Env of pseudovirus R2184.c04 (HIV-1).
Assay [35] addresses HIV-1 Env of pseudovirus T257-31 (HIV-1).
Assay [36] has as its target HIV-1 Env of pseudovirus TRO.11 (HIV-1).
For assay [37], the target named is HIV-1 Env of pseudovirus ZM109F.PB4 (HIV-1).
In assay [38] the target is HIV-1 Env of pseudovirus ZM197M.PB7 (HIV-1).

In the case of 354BG8 (antibody), the IC50 in TZM-bl assay was 0.007 µg/mL in [1], 0.061 µg/mL in [2] and 0.008 µg/mL with JR-CSF N362A (HIV-1). In [2], this molecule returned an IC80 in TZM-bl assay of 0.263 µg/mL.
BG1 (antibody): the IC50 in TZM-bl assay was 0.008 µg/mL in [3]; 6.75 µg/mL in assay [4]; above 30 µg/mL in [5]; above 30 µg/mL in assay [6]; above 30 µg/mL in assay [7]; 0.012 µg/mL in assay [8]. In addition, the IC50 in TZM-bl assay in assay [9] is above 30 µg/mL; in assay [10], above 30 µg/mL; in assay [11], above 30 µg/mL; in assay [12], above 30 µg/mL; in assay [13] it was above 30 µg/mL; in assay [14], 0.008 µg/mL. The IC50 in TZM-bl assay in assay [15] is above 30 µg/mL; in assay [16] it was above 30 µg/mL; in [17], 0.048 µg/mL; in [18], 9 µg/mL; in [19] it was 15.8 µg/mL. Also, the IC80 in TZM-bl assay in assay [3] was 0.018 µg/mL; in assay [4], 16.6 µg/mL; in assay [5] it was above 30 µg/mL; in [6], above 30 µg/mL; in assay [7], above 30 µg/mL; in assay [8], 0.043 µg/mL. Further, the IC80 in TZM-bl assay in assay [9] was above 30 µg/mL; in [10], above 30 µg/mL; in assay [11], above 30 µg/mL; in [12] it was above 30 µg/mL; in [13], above 30 µg/mL; in [14] it was 0.016 µg/mL. Besides, the IC80 in TZM-bl assay in assay [15] was above 30 µg/mL; in [16], above 30 µg/mL; in [17], 0.086 µg/mL; in assay [18], 23 µg/mL; in assay [19], above 30 µg/mL.
Regarding BG18 IgG (354BG18) (antibody), in assay [20], the IC50 in TZM-bl assay is below 0.0001 µg/mL and the IC80 in TZM-bl assay stood at 0.002 µg/mL.
In assay [21], PGT121 (antibody) gave an IC50 in TZM-bl assay above 10 µg/mL and an IC80 in TZM-bl assay above 10 µg/mL.

B1: 10-1074 (antibody, V domains shown)
VH: QVQLQESGPGLVKPSETLSVTCSVSGDSMNNYYWTWIRQSPGKGLEWIGYISDRESATYNPSLNSRVVISRDTSKNQLSLKLNSVTPADTAVYYCATARRGQRIYGVVSFGEFFYYYSMDVWGKGTTVTVSS
VL: SYVRPLSVALGETARISCGRQALGSRAVQWYQHRPGQAPILLIYNNQDRPSGIPERFSGTPDINFGTRATLTISGVEAGDEADYYCHMWDSRSGFSWSFGGATRLTVL
For B1, the IC50 in TZM-bl assay was 0.026 µg/mL in assay [22]; above 10 µg/mL in assay [23]; above 10 µg/mL in assay [24]; 0.009 µg/mL in assay [25]; above 10 µg/mL in assay [26]; above 10 µg/mL in assay [27]. Besides, the IC50 in TZM-bl assay was above 10 µg/mL in assay [28]; 0.075 µg/mL in assay [29]; above 10 µg/mL in assay [30]; 1.99 µg/mL in assay [31]; above 10 µg/mL in assay [32]; above 10 µg/mL in assay [33]. Moreover, the IC50 in TZM-bl assay in assay [34] is above 10 µg/mL; in assay [35], above 10 µg/mL; in assay [36], 0.011 µg/mL; in assay [37], above 10 µg/mL; in assay [38], above 10 µg/mL. The IC80 in TZM-bl assay in [22] was 0.108 µg/mL; in [23] it was above 10 µg/mL; in [24], above 10 µg/mL; in assay [25], 0.019 µg/mL; in assay [26] it was above 10 µg/mL; in assay [27], above 10 µg/mL. The IC80 in TZM-bl assay in assay [28] is above 10 µg/mL; in assay [29], above 10 µg/mL; in assay [30], above 10 µg/mL; in assay [31] it was 9.76 µg/mL; in assay [32], above 10 µg/mL; in assay [33], above 10 µg/mL. Also, the IC80 in TZM-bl assay in assay [34] is above 10 µg/mL; in assay [35], above 10 µg/mL; in assay [36] it was 0.039 µg/mL; in [37] it was above 10 µg/mL; in assay [38], above 10 µg/mL.
